Results reported in the supplement of paper PMC9112550, “Optimization of the antimicrobial peptide Bac7 by deep mutational scanning” (BMC Biology, 2022).

Test system: Escherichia coli TOP10
Assay: shrunken log2 fold change of peptide-encoding DNA abundance (4.5 h post-induction vs induction); higher = less antimicrobial activity (less host growth inhibition)
Details: time post-induction: 4.5 h; library: site-saturation at positions 5, 18, 19, 20
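Also: peptides expressed intracellularly from a pBAD plasmid library in pooled LB shake-flask culture, induced with 0.3% L-arabinose, DNA abundance read by NGS, three biological replicates, DESeq2 with apeglm shrinkage.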

Sequence	shrunken log2 fold change
RRIRQRPPRLPRPRPRPLCYPRP	-0.383
RRIRQRPPRLPRPRPRPLENPRP	-0.0226
RRIRQRPPRLPRPRPRPLFLPRP	-0.65
RRIRQRPPRLPRPRPRPLFVPRP	-0.495
RRIRQRPPRLPRPRPRPLHGPRP	0.0407
RRIRQRPPRLPRPRPRPLHYPRP	-0.269
RRIRQRPPRLPRPRPRPLIMPRP	-0.0338
RRIRQRPPRLPRPRPRPLIVPRP	-0.149
RRIRQRPPRLPRPRPRPLKKPRP	-0.15
RRIRQRPPRLPRPRPRPLKSPRP	0.138
RRIRQRPPRLPRPRPRPLQIPRP	0.223
RRIRQRPPRLPRPRPRPLRAPRP	0.825
RRIRQRPPRLPRPRPRPLRSPRP	0.208
RRIRQRPPRLPRPRPRPLRYPRP	-0.0738
RRIRQRPPRLPRPRPRPLSCPRP	-0.242
RRIRQRPPRLPRPRPRPLTRPRP	0.424
RRIRQRPPRLPRPRPRPLVPPRP	0.253
RRIRQRPPRLPRPRPRPLWRPRP	3.25
RRIRQRPPRLPRPRPRPLYEPRP	-0.671
RRIRQRPPRLPRPRPRPLYTPRP	-0.671
RRIRQRPPRLPRPRPRPLYVPRP	-0.307
RRIRQRPPRLPRPRPRPMCIPRP	0.0119
RRIRQRPPRLPRPRPRPMDTPRP	-0.031
RRIRQRPPRLPRPRPRPMEVPRP	-0.0855
RRIRQRPPRLPRPRPRPMFVPRP	0.493

Sequence	shrunken log2 fold change
RRIRQRPPRLPRPRPRPMGAPRP	0.132
RRIRQRPPRLPRPRPRPMIHPRP	-0.471
RRIRQRPPRLPRPRPRPMKQPRP	-0.0134
RRIRQRPPRLPRPRPRPMKRPRP	-0.111
RRIRQRPPRLPRPRPRPMLDPRP	-0.206
RRIRQRPPRLPRPRPRPMLPPRP	-0.384
RRIRQRPPRLPRPRPRPMMEPRP	0.00908
RRIRQRPPRLPRPRPRPMMLPRP	0.052
RRIRQRPPRLPRPRPRPMNWPRP	-0.0581
RRIRQRPPRLPRPRPRPMQDPRP	-0.0104
RRIRQRPPRLPRPRPRPMQMPRP	0.0303
RRIRQRPPRLPRPRPRPMRFPRP	0.0202
RRIRQRPPRLPRPRPRPMRIPRP	-0.0249
RRIRQRPPRLPRPRPRPMSFPRP	0.0381
RRIRQRPPRLPRPRPRPMTNPRP	-0.0671
RRIRQRPPRLPRPRPRPMTWPRP	-0.0225
RRIRQRPPRLPRPRPRPMVHPRP	-0.0226
RRIRQRPPRLPRPRPRPMVQPRP	-0.00171
RRIRQRPPRLPRPRPRPMWDPRP	-0.0352
RRIRQRPPRLPRPRPRPMWFPRP	0.153
RRIRQRPPRLPRPRPRPMWNPRP	-0.123
RRIRQRPPRLPRPRPRPMYHPRP	-0.477
RRIRQRPPRLPRPRPRPNCEPRP	0.117
RRIRQRPPRLPRPRPRPNENPRP	-0.0578
RRIRQRPPRLPRPRPRPNFCPRP	0.117

Sequence	shrunken log2 fold change
RRIRQRPPRLPRPRPRPNFSPRP	-0.23
RRIRQRPPRLPRPRPRPNGGPRP	0.00705
RRIRQRPPRLPRPRPRPNHCPRP	-0.0615
RRIRQRPPRLPRPRPRPNHPPRP	-0.249
RRIRQRPPRLPRPRPRPNIYPRP	-0.153
RRIRQRPPRLPRPRPRPNKIPRP	-0.388
RRIRQRPPRLPRPRPRPNMSPRP	-0.313
RRIRQRPPRLPRPRPRPNMTPRP	-0.196
RRIRQRPPRLPRPRPRPNMWPRP	-0.419
RRIRQRPPRLPRPRPRPNNQPRP	-0.477
RRIRQRPPRLPRPRPRPNPSPRP	-0.042
RRIRQRPPRLPRPRPRPNQRPRP	0.0738
RRIRQRPPRLPRPRPRPNSQPRP	0.229
RRIRQRPPRLPRPRPRPNSTPRP	-0.642
RRIRQRPPRLPRPRPRPNVHPRP	-0.258
RRIRQRPPRLPRPRPRPNWCPRP	-0.0237
RRIRQRPPRLPRPRPRPNWIPRP	-0.0614
RRIRQRPPRLPRPRPRPNWNPRP	-0.206
RRIRQRPPRLPRPRPRPNWVPRP	0.00521
RRIRQRPPRLPRPRPRPNYAPRP	-0.0208
RRIRQRPPRLPRPRPRPNYVPRP	-0.426
RRIRQRPPRLPRPRPRPPAEPRP	0.589
RRIRQRPPRLPRPRPRPPAKPRP	0.358
RRIRQRPPRLPRPRPRPPCFPRP	0.222
RRIRQRPPRLPRPRPRPPCGPRP	0.184

Sequence	shrunken log2 fold change
RRIRQRPPRLPRPRPRPPEEPRP	-0.00674
RRIRQRPPRLPRPRPRPPEIPRP	-0.0671
RRIRQRPPRLPRPRPRPPFCPRP	-0.284
RRIRQRPPRLPRPRPRPPFPPRP	0.243
RRIRQRPPRLPRPRPRPPGLPRP	0.127
RRIRQRPPRLPRPRPRPPIMPRP	-0.344
RRIRQRPPRLPRPRPRPPIRPRP	-0.0146
RRIRQRPPRLPRPRPRPPKCPRP	-0.37
RRIRQRPPRLPRPRPRPPKNPRP	0.29
RRIRQRPPRLPRPRPRPPLNPRP	0.633
RRIRQRPPRLPRPRPRPPPAPRP	0.804
RRIRQRPPRLPRPRPRPPQEPRP	-0.00749
RRIRQRPPRLPRPRPRPPQKPRP	-0.167
RRIRQRPPRLPRPRPRPPQYPRP	0.198
RRIRQRPPRLPRPRPRPPRHPRP	0.644
RRIRQRPPRLPRPRPRPPSFPRP	0.0399
RRIRQRPPRLPRPRPRPPSIPRP	-0.0422
RRIRQRPPRLPRPRPRPPSLPRP	0.149
RRIRQRPPRLPRPRPRPPSNPRP	-0.481
RRIRQRPPRLPRPRPRPPSWPRP	0.581
RRIRQRPPRLPRPRPRPPTPPRP	0.538
RRIRQRPPRLPRPRPRPPVPPRP	0.197
RRIRQRPPRLPRPRPRPPVTPRP	0.199
RRIRQRPPRLPRPRPRPPWDPRP	0.224
RRIRQRPPRLPRPRPRPPWEPRP	-0.0075

Sequence	shrunken log2 fold change
RRIRQRPPRLPRPRPRPPYAPRP	-0.189
RRIRQRPPRLPRPRPRPPYMPRP	-0.184
RRIRQRPPRLPRPRPRPQAVPRP	0.00748
RRIRQRPPRLPRPRPRPQCAPRP	-0.183
RRIRQRPPRLPRPRPRPQFDPRP	-0.178
RRIRQRPPRLPRPRPRPQFLPRP	-0.359
RRIRQRPPRLPRPRPRPQFQPRP	-0.265
RRIRQRPPRLPRPRPRPQHEPRP	0.119
RRIRQRPPRLPRPRPRPQIPPRP	-0.214
RRIRQRPPRLPRPRPRPQISPRP	-0.159
RRIRQRPPRLPRPRPRPQIVPRP	-0.026
RRIRQRPPRLPRPRPRPQNAPRP	-0.198
RRIRQRPPRLPRPRPRPQNDPRP	0.119
RRIRQRPPRLPRPRPRPQPFPRP	-0.0492
RRIRQRPPRLPRPRPRPQPSPRP	0.44
RRIRQRPPRLPRPRPRPQRAPRP	0.224
RRIRQRPPRLPRPRPRPQSNPRP	-0.00933
RRIRQRPPRLPRPRPRPQTFPRP	0.028
RRIRQRPPRLPRPRPRPQVCPRP	0.0103
RRIRQRPPRLPRPRPRPQWFPRP	0.0435
RRIRQRPPRLPRPRPRPRAEPRP	0.292
RRIRQRPPRLPRPRPRPRCCPRP	0.061
RRIRQRPPRLPRPRPRPRCKPRP	0.268
RRIRQRPPRLPRPRPRPRCMPRP	-0.164
RRIRQRPPRLPRPRPRPRCYPRP	0.0331

Sequence	shrunken log2 fold change
RRIRQRPPRLPRPRPRPRDNPRP	-0.0667
RRIRQRPPRLPRPRPRPREFPRP	0.0416
RRIRQRPPRLPRPRPRPREHPRP	-0.117
RRIRQRPPRLPRPRPRPREKPRP	0.158
RRIRQRPPRLPRPRPRPRELPRP	0.0285
RRIRQRPPRLPRPRPRPRFPPRP	0.0593
RRIRQRPPRLPRPRPRPRGEPRP	0.348
RRIRQRPPRLPRPRPRPRGLPRP	0.00877
RRIRQRPPRLPRPRPRPRGNPRP	0.106
RRIRQRPPRLPRPRPRPRHCPRP	-0.0425
RRIRQRPPRLPRPRPRPRHEPRP	-0.131
RRIRQRPPRLPRPRPRPRIDPRP	0.0868
RRIRQRPPRLPRPRPRPRIEPRP	0.111
RRIRQRPPRLPRPRPRPRIGPRP	0.341
RRIRQRPPRLPRPRPRPRIKPRP	0.127
RRIRQRPPRLPRPRPRPRLKPRP	0.161
RRIRQRPPRLPRPRPRPRLPPRP	0.467
RRIRQRPPRLPRPRPRPRLWPRP	0.504
RRIRQRPPRLPRPRPRPRMSPRP	0.208
RRIRQRPPRLPRPRPRPRMTPRP	0.388
RRIRQRPPRLPRPRPRPRNCPRP	5
RRIRQRPPRLPRPRPRPRNDPRP	-0.485
RRIRQRPPRLPRPRPRPRNMPRP	-0.211
RRIRQRPPRLPRPRPRPRNYPRP	0.034
RRIRQRPPRLPRPRPRPRQAPRP	0.0647
